{
  "source": "paper PMC9700832",
  "about": "(2022)",
  "binders": {"B1": {"name": "gp7 protein of GIL01 phage (natural protein)", "chain": "MRDKLLDFIIELSQSSKQVVSKSYVIDRLMQVTKEDYKELEKNVEGKKDD"}, "B2": {"name": "tectiviral gp7 homolog from B. mycoides VDm034 phage Lima (natural protein)", "chain": "MRDKLLDFIIELSQSSKQVVAKDYVIDRLMQVTKEDYKEMEKKTEGKKN"}, "B3": {"name": "B. thuringiensis serovar israelensis LexA (natural protein)", "chain": "MEKLTKRQQDILDFIKLKVQEKGYPPSVREIGQAVGLASSSTVHGHLSRLEEKGYIRRDPTKPRAIEILGEDRMDTETQSVIQVPIVGKVTAGLPITAVESVEEHFPLPASIVAGADQVFMLRISGDSMIEAGIFDGDLVVVRQQQSAYNGEIVVALTEDNEATVKRFYKEKDHFRLQPENSSLEPIILKQVSVIGKVIGVYRDLH"}},
  "assay_in_all_cases": "SPR",
  "key": {"[1]": {"target": "B3"}, "[2]": {"target": "tectiviral gp7 homolog from B. anthracis phage AP50 (phage AP50 (B. anthracis))"}, "[3]": {"target": "tectiviral gp7 homolog from the phage found in B. thuringiensis serovar aizawai (tectiviral phage found in B. …)"}, "[4]": {"target": "tectiviral gp7 homolog from B. cereus AND1284 phage Sato (phage Sato (B. cereus AND1284))"}, "[5]": {"target": "tectiviral gp7 homolog from the phage found in B. cereus VD184 (tectiviral phage found in B. cereus …)"}},
  "data": [
    {"binder": "B1", "values": [
      {"measurement": "Kd", "setting": "[1]", "value": 169, "unit": "nM"}
    ]},
    {"binder": "B2", "values": [
      {"measurement": "Kd", "setting": "[1]", "value": 185, "unit": "nM"}
    ]},
    {"binder": "B3", "values": [
      {"measurement": "Kd", "setting": "[2]", "value": 167, "unit": "nM"},
      {"measurement": "Kd", "setting": "[3]", "value": 150, "unit": "nM"},
      {"measurement": "Kd", "setting": "[4]", "value": 190, "unit": "nM"},
      {"measurement": "Kd", "setting": "[5]", "value": 148, "unit": "nM"}
    ]}
  ]
}
